Assay results from US20170224833A1, “SELF-ASSEMBLING MOLECULES THAT ACCUMULATE IN ACIDIC TUMOR MICROENVIRONMENTS” (OHIO STATE INNOVATION FOUNDATION, priority 2014, published 2017).
*: point of attachment. Palmitoyl = CCCCCCCCCCCCCCCC(=O)*

Experiments:
[1] = CD spectroscopy in artificial mouse serum (150 mM NaCl, 2.2 mM CaCl2, 1.8 mM 20 kDa PEG); assay type: physicochemical; conditions: both pure and artificial mouse serum
Method: Measurements were done on a Jasco-815 Circular Dichroism spectrometer using 0.5-1 cm path length quartz cuvettes. 500-10 μM of either pure PA or PA mixtures were prepared in 150 mM NaCl and 2.2 mM CaCl2 (and 1.8 mM 20 kDa PEG in select samples) by dilution from a concentrated PA stock (0.5-1 mM, pH 9). Double de-ionized Milli-Q water was used for preparing all solutions. The solutions were then heated at 80° C. for 30 minutes in a water bath and gradually cooled to room temperature. An Accumet XL15 pH meter (Fisher Scientific) coupled with an Orion Ross Ultra semi-micro electrode (8103BNUWP, Thermo Scientific) was used to adjust the pH of the solution to the desired value followed by collection of the CD spectra. Each trace shown was averaged over 3 accumulations and was baseline subtracted using aqueous solutions containing salts only. All spectra are cut-off below 200 nm due to absorption by NaCl and CaCl2. The same procedure was followed for the salt control samples with 3.0 and 4.0 mM CaCl2.
Finally, a medium that accurately replicated the ionic strength and the crowded environment of pure serum and enabled characterization of the PA self assembly behavior using CD and CAC measurements without interference from protein signals was created. This artificial serum solution contains 1.8 mM of 20 kDa PEG, 150 mM NaCl and 2.2 mM CaCl2. […]

[2] = 150 mM NaCl, 2.2 mM CaCl2; previously found (Ghosh 2012); cited from earlier work

Palmitoyl-IAAAEEEEK(DO3A:Gd)-NH2 (Palmitoyl-IAAAEEEEK(DO3A)-NH2; also: DO3A chelates Gd) [PA5]
morphology across pH [1]: remains nanofibers across all measured pH values | pH of concentration independent transition from spherical micelles to nanofibers [2]: 6.0
